Experimental data reported in patent US20170174783A1 (Zymeworks, published 2017).

How the values were obtained:
[1] = target: T1, HER2 on the surface of human tumour cell lines (human, UniProt P04626 23-1255); experiment: flow cytometry on SKOV3 cells
T1 construct: whole, on cells; also called ErbB2; Her2 receptor
Method: (§1) Binding of the test antibodies to the surface of SKOV3 cells was determined by flow cytometry. Cells were washed with PBS and resuspended in DMEM at 1×10⁵ cells/100 μl. 100 μl cell suspension was added into each microcentrifuge tube, followed by 10 μl/tube of the antibody variants. The tubes were incubated for 2 hr 4° C. on a rotator. The microcentrifuge tubes were centrifuged for 2 min 2000 RPM at room temperature and the cell pellets washed with 500 μl media. Each cell pellet was resuspended 100 μl of fluorochrome-labelled secondary antibody diluted in media to 2 μg/sample. The samples were then incubated for 1 hr at 4° C. on a rotator. After incubation, the cells were centrifuged for 2 min at 2000 RPM and washed in media. The cells were resuspended in 500 μl media, filtered in tube containing 5 μl propidium iodide (PI) and analyzed on a BD LSRII flow cytometer according to the manufacturer's instructions.

[2] = target: T1, HER2 on the surface of human tumour …; experiment: flow cytometry on SKOV3 cells; remark: listed apart in the source
Method: as §1

[3] = target: T1, HER2 on the surface of human tumour …; experiment: flow cytometry on MALME-3M cells

Kd [1]: 12.4 nM | fold difference in Bmax, OA4-scFv-BID2 against FSA-scFv-BID2 [2]: 1.96 fold | fold difference in KD, OA4-scFv-BID2 against FSA-scFv-BID2 [2]: 2.03 fold | EC50 (read off the curve) [3]: ~30 nM
B1: OA4-scFv-BID2 (antibody)
chain 1: QVQLVQSGAEVKKPGESLKISCKGSGYSFTSYWIAWVRQMPGKGLEYMGLIYPGDSDTKYSPSFQGQVTISVDKSVSTAYLQWSSLKPSDSAVYFCARHDVGYCTDRTCAKWPEWLGVWGQGTLVTVSSGGGGSSGGGSGGGGSQSVLTQPPSVSAAPGQKVTISCSGSSSNIGNNYVSWYQQLPGTAPKLLIYDHTNRPAGVPDRFSGSKSGTSASLAISGFRSEDEADYYCASWDYTLSGWVFGGGTKLTVLGAAEPKSSDKTHTCPPCPAPELLGGPSVFLFPPKPKDTLMISRTPEVTCVVVDVSHEDPEVKFNWYVDGVEVHNAKTKPREEQYNSTYRVVSVLTVLHQDWLNGKEYKCKVSNKALPAPIEKTISKAKGQPREPQVYTYPPSRDELTKNQVSLTCLVKGFYPSDIAVEWESNGQPENNYKTTPPVLDSDGSFALVSKLTVDKSRWQQGNVFSCSVMHEALHNHYTQKSLSLSPGK
chain 2: not shown
notes: also called 878
